Experimental data: the supplement of paper PMC7125110
± gives the standard error. For some assays here: Fewer inactive variants are shown than the library holds.

B1: glmS ribozyme (parent)
chain: AUAAAAGCGCCAGAACUACAGAAAUGUAGUUGACGAGGAGGAGGUUUAUCGAAUUUUCGGCGGAUGCCUCCAAA

How the values were obtained:
Settings in all cases: with glucosamine-6-phosphate
[1] = variants of: B1; assay: kcat; higher = faster cleavage; RNA array
Summary of the method: (§1)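 Sequenced MiSeq chips were the platform: E. coli RNA polymerase transcribed barcoded ribozyme variants on them in situ, and a hybridised Cy3 probe tracked these at 37 °C. After glucosamine-6-phosphate (40 μM to 10 mM) in HEPES/KCl/Mg(OAc)2 buffer was flowed in, tiles were imaged over ~14 h. Signals normalised to baseline and to non-cleaving reference variants were reduced to per-tile medians and fit to one- or two-exponential decays to obtain kobs. kcat and KM were derived through weighted Michaelis–Menten fits across concentrations.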

[2] = variants of: B1; assay: self-cleavage kobs at 40 uM GlcN6P; higher = faster cleavage; RNA array
Summary of the method: as §1

[3] = variants of: B1; assay: KM; higher = weaker cofactor use; RNA array
Summary of the method: as §1

[4] = variants of: B1; assay: self-cleavage kobs at 640 uM GlcN6P; higher = faster cleavage; RNA array
Summary of the method: as §1

[5] = variants of: B1; assay: self-cleavage kobs at 2500 uM GlcN6P; higher = faster cleavage; RNA array
Summary of the method: as §1

[6] = variants of: B1; assay: self-cleavage kobs at 10000 uM GlcN6P; higher = faster cleavage; RNA array
Summary of the method: as §1

[7] = variants of: B1; assay: self-cleavage kobs at 160 uM GlcN6P; higher = faster cleavage; RNA array
Summary of the method: as §1

Variant | kcat [1] | self-cleavage kobs at 40 uM GlcN6P [2] | KM [3] | self-cleavage kobs at 640 uM GlcN6P [4] | self-cleavage kobs at 2500 uM GlcN6P [5] | self-cleavage kobs at 10000 uM GlcN6P [6] | self-cleavage kobs at 160 uM GlcN6P [7]
G13U U57A | 2.08e-05 ± 4.9e-06 s⁻¹ | < 1e-05 s⁻¹ | – | – | – | – | –
A6U U55A | 0.000365 ± 1.1e-05 s⁻¹ | – | 2630 ± 160 µM | 7.22e-05 ± 1.3e-05 s⁻¹ | 0.000173 ± 3.5e-05 s⁻¹ | 0.000291 ± 3.4e-05 s⁻¹ | –
U56A G66U | 0.000875 ± 6.7e-05 s⁻¹ | – | 2780 ± 350 µM | 0.000164 ± 1.8e-05 s⁻¹ | 0.000378 ± 4.5e-05 s⁻¹ | 0.000712 ± 6.7e-05 s⁻¹ | 5.15e-05 ± 8.2e-06 s⁻¹
A48C G66U | 2.77e-05 ± 2.1e-07 s⁻¹ | – | 2750 ± 61 µM | – | – | – | –
A39C A53C | 0.00121 ± 6.7e-05 s⁻¹ | 2.09e-05 ± 8.9e-06 s⁻¹ | 2680 ± 240 µM | 0.000221 ± 2.6e-05 s⁻¹ | 0.000595 ± 6.8e-05 s⁻¹ | 0.000957 ± 0.0001 s⁻¹ | 7.25e-05 ± 1.1e-05 s⁻¹
U31C G40C | 0.000274 ± 4.9e-05 s⁻¹ | – | – | 0.000125 ± 5e-05 s⁻¹ | 0.000177 ± 4e-05 s⁻¹ | 0.000287 ± 6.9e-05 s⁻¹ | –
U31C U54C | 0.00689 ± 0.0027 s⁻¹ | 0.000101 ± 1.8e-05 s⁻¹ | – | 0.00134 ± 0.00024 s⁻¹ | 0.00166 ± 0.00057 s⁻¹ | 0.00579 ± 0.00087 s⁻¹ | 0.000254 ± 4.6e-05 s⁻¹
C34U G38A C71U | < 1e-05 s⁻¹ | < 1e-05 s⁻¹ | – | – | < 1e-05 s⁻¹ | – | < 1e-05 s⁻¹
unchanged | 0.0712 ± 0.0079 s⁻¹ | 0.00143 ± 1.7e-05 s⁻¹ | 1990 ± 250 µM | 0.016 ± 0.00046 s⁻¹ | 0.0364 ± 0.0015 s⁻¹ | 0.0644 ± 0.0021 s⁻¹ | 0.00462 ± 0.00025 s⁻¹
G29C | 0.0045 ± 0.0012 s⁻¹ | 8.88e-05 ± 1.6e-06 s⁻¹ | 2300 ± 720 µM | 0.000839 ± 4.1e-05 s⁻¹ | 0.00239 ± 0.0001 s⁻¹ | 0.00377 ± 0.00011 s⁻¹ | 0.000212 ± 8.4e-06 s⁻¹
G41U U54C | 0.00115 ± 0.00032 s⁻¹ | 0.000109 ± 1.9e-05 s⁻¹ | – | 0.000389 ± 0.0001 s⁻¹ | 0.00118 ± 0.00025 s⁻¹ | 0.00117 ± 0.00018 s⁻¹ | 0.000197 ± 4.5e-05 s⁻¹
G13A C71G | 5.85e-05 ± 4.1e-06 s⁻¹ | – | – | 5.42e-05 ± 1.3e-05 s⁻¹ | 5.71e-05 ± 9.7e-06 s⁻¹ | 5.48e-05 ± 7e-06 s⁻¹ | –
U47G | 0.0175 ± 0.00086 s⁻¹ | 0.000326 ± 7.1e-06 s⁻¹ | 2130 ± 130 µM | 0.00389 ± 0.00017 s⁻¹ | 0.00997 ± 0.00041 s⁻¹ | 0.0142 ± 0.00058 s⁻¹ | 0.00112 ± 9.8e-05 s⁻¹
C67A C70G | 3.41e-05 ± 3.9e-06 s⁻¹ | – | – | 4.26e-05 ± 9.9e-06 s⁻¹ | 2.92e-05 ± 7.8e-06 s⁻¹ | 3.34e-05 ± 5.8e-06 s⁻¹ | –
A6G U69G | 1.01e-05 ± 1.6e-06 s⁻¹ | < 1e-05 s⁻¹ | – | – | – | – | –
G32C U69C | 3.02e-05 ± 3.3e-06 s⁻¹ | – | – | 3.47e-05 ± 1.7e-05 s⁻¹ | 3.15e-05 ± 1.3e-05 s⁻¹ | 2.58e-05 ± 1.2e-05 s⁻¹ | –
A42U U69C C71U | 0.00168 ± 0.0003 s⁻¹ | 8.14e-05 ± 1.7e-05 s⁻¹ | 700 ± 210 µM | 0.000956 ± 0.00016 s⁻¹ | 0.00156 ± 0.00038 s⁻¹ | 0.00136 ± 0.00028 s⁻¹ | –

Variant | kcat [1] | self-cleavage kobs at 40 uM GlcN6P [2] | KM [3] | self-cleavage kobs at 640 uM GlcN6P [4] | self-cleavage kobs at 2500 uM GlcN6P [5] | self-cleavage kobs at 10000 uM GlcN6P [6] | self-cleavage kobs at 160 uM GlcN6P [7]
C50A C58U | 1.33e-05 ± 5.8e-06 s⁻¹ | – | – | < 1e-05 s⁻¹ | – | – | –
A12C G66A | 0.00855 ± 0.0022 s⁻¹ | 0.00028 ± 7e-05 s⁻¹ | 1580 ± 570 µM | 0.00241 ± 0.00027 s⁻¹ | 0.00753 ± 0.0014 s⁻¹ | 0.00648 ± 0.0015 s⁻¹ | 0.000705 ± 0.00014 s⁻¹
U55C C71U | 0.00258 ± 5.1e-05 s⁻¹ | 6.36e-05 ± 1e-05 s⁻¹ | 1620 ± 49 µM | 0.000749 ± 0.00015 s⁻¹ | 0.00157 ± 0.00021 s⁻¹ | 0.00222 ± 0.00029 s⁻¹ | 0.000225 ± 3.7e-05 s⁻¹
A14G U45A | 0.077 ± 0.015 s⁻¹ | 0.00233 ± 0.00047 s⁻¹ | 1340 ± 310 µM | 0.0331 ± 0.0099 s⁻¹ | 0.0452 ± 0.016 s⁻¹ | 0.0701 ± 0.026 s⁻¹ | 0.00764 ± 0.0014 s⁻¹
A39G U45C | 0.0102 ± 0.0019 s⁻¹ | 0.00012 ± 2.4e-05 s⁻¹ | 3810 ± 980 µM | 0.00126 ± 0.00034 s⁻¹ | 0.00381 ± 0.0011 s⁻¹ | 0.00774 ± 0.0016 s⁻¹ | –
A33U U56G | 3.36e-05 ± 2.8e-06 s⁻¹ | – | 3370 ± 930 µM | – | – | – | –
U56A C68G C71U | 4.87e-05 ± 2e-05 s⁻¹ | – | – | 7.83e-05 ± 1.6e-05 s⁻¹ | 4e-05 ± 1.6e-05 s⁻¹ | – | –
G9A G13U | < 1e-05 s⁻¹ | – | – | – | < 1e-05 s⁻¹ | < 1e-05 s⁻¹ | –
G37C U47C | < 1e-05 s⁻¹ | < 1e-05 s⁻¹ | – | – | – | – | < 1e-05 s⁻¹
G38A C71G | < 1e-05 s⁻¹ | – | – | – | – | – | –
A15C G29C | 0.00165 ± 0.00021 s⁻¹ | 3.67e-05 ± 1e-05 s⁻¹ | 2620 ± 510 µM | 0.000333 ± 4.2e-05 s⁻¹ | 0.000772 ± 9.9e-05 s⁻¹ | 0.00135 ± 0.00018 s⁻¹ | 8.7e-05 ± 1.5e-05 s⁻¹
G35U G51C | < 1e-05 s⁻¹ | – | – | < 1e-05 s⁻¹ | – | – | < 1e-05 s⁻¹
G60A C70A | 1.05e-05 ± 2.5e-06 s⁻¹ | < 1e-05 s⁻¹ | – | – | – | – | –
G40U G66U | 6.98e-05 ± 5.6e-06 s⁻¹ | – | 2030 ± 510 µM | 2.07e-05 ± 8.1e-06 s⁻¹ | 3.54e-05 ± 7.3e-06 s⁻¹ | 5.9e-05 ± 7.2e-06 s⁻¹ | –
U57C C68G | 1.42e-05 ± 2.7e-06 s⁻¹ | – | – | – | – | – | –
G7A A14G | 9.79e-05 ± 3.9e-06 s⁻¹ | – | 3550 ± 470 µM | – | 3.92e-05 ± 1.5e-05 s⁻¹ | 7.23e-05 ± 6.8e-06 s⁻¹ | –
